{
  "source": "paper PMC11218785",
  "about": "“Methyltransferase TaSAMT1 mediates wheat freezing tolerance by integrating brassinosteroid and salicylic acid signaling”",
  "binders": {"B1": {"name": "TaSAMT1-B promoter E-box probe (dsDNA)", "DNA 1": "CACGCGCATACGTGCTCATATGGCAATGAG", "DNA 2": "CTCATTGCCATATGAGCACGTATGCGCGTG"}},
  "target": "T1, MBP-TaBZR1 (Triticum aestivum, UniProt A0A3B6AUH8 1-313)",
  "T1 sequence": "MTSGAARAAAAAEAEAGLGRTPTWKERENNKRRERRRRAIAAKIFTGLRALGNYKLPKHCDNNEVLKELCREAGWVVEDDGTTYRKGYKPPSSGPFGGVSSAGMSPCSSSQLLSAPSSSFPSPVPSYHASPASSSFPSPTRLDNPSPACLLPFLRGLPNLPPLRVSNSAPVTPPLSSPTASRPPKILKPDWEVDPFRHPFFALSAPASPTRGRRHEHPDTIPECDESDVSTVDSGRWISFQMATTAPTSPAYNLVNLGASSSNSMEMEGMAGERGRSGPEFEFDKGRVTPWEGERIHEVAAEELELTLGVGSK",
  "test": "EMSA; 1 nM probe; 1x LightShift binding buffer, 50 ng poly(dI-dC), 2.5% glycerol, 0.05% NP-40, 50 mM KCl, 5 mM MgCl2, 2 mM EDTA pH 8.0, 1 nM biotin probe, 25 C 20 min, 6% PAGE",
  "conditions": "protein: recombinant; tags: N-terminal MBP (pCold-MBP); chain copies: 2; label: biotin (forward strand primer marked bio); blunt",
  "data": [
    {"binder": "B1", "values": [
      {"measurement": "binding result", "value": "binds"}
    ]}
  ]
}
